This note sets out measurements from the supplement of paper PMC10567573.

To fix the notation:
B1: PTPN9 (parent)
chain: LKGAFPARLKKVLIVGAPIWFRVP
B2: NCK2 (parent)
chain: YTGPSSSGRFAGREWYYGNVTRHQ
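Note: lentivirally expressed fusions sorted by FACS into six bins by GFP to DsRed ratio, PSI derived from sequencing read proportions per bin multiplied by bin number.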

The variants in one series derive from B1. Nature of the series: protein stability index of a GFP-peptide fusion (GPS, HEK-293T) (PSI 1-6); higher = more stable. Particulars: c terminus: a fixed tail appended.
On to LKGAFPQRLKKVLIVGAPIWFRVP [A7Q], for which the protein stability index was found to be 2.24. Take LKGAFPALLKKVLIVGAPIWFRVP [R8L]: the protein stability index stood at 2.2.

Consider LKGAFPAMLKKVLIVGAPIWFRVP [R8M], for which the protein stability index came to 2.46.

For LKGAFPANLKKVLIVGAPIWFRVP [R8N], the protein stability index worked out at 2.74. Consider LKGAFPASLKKVLIVGAPIWFRVP [R8S], for which the protein stability index came to 3.94. On to LKGAFPAFLKKVLIVGAPIWFRVP [R8F], for which the protein stability index amounted to 2.79. With LKGAFPAWLKKVLIVGAPIWFRVP [R8W], the protein stability index is 2.35.

On to LKGAFPAGLKKVLIVGAPIWFRVP [R8G], for which the protein stability index stood at 2.76. Take LKGAFPARLKKVLIVGAPIWFRVD [P24D]: the protein stability index is 4.03. Consider LKGAFPARLKKVLIVGAPIWFRVL [P24L], for which the protein stability index is 3.02. As to LKGAFPARLKKVLIVGAPIWFRVK [P24K], the protein stability index turned out to be 3.06. With LKGAFPARLKKVLIVGAPIWFRVE [P24E], the protein stability index came out at 1.31. On to LKGALPARLKKVLIVGAPIWFRVP [F5L], for which the protein stability index turned out to be 3.82.

As to LKGATPARLKKVLIVGAPIWFRVP [F5T], the protein stability index was found to be 2.25. With LKGAIPARLKKVLIVGAPIWFRVP [F5I], the protein stability index amounted to 3.12. With LKGAPPARLKKVLIVGAPIWFRVP [F5P], the protein stability index amounted to 2.49. For LKGAFHARLKKVLIVGAPIWFRVP [P6H], the protein stability index was determined as 2.28.

As for LKGAFMARLKKVLIVGAPIWFRVP [P6M], the protein stability index was determined as 1.86. Regarding LKGAFPARLKKVLIVGAPIWFLVP [R22L], the protein stability index stood at 4.03. Still for that read-out and setting: to LKGAFPARLKKVLIVGAPIWFDVP [R22D] belongs 1.87; to LKGAFPARLKKVLIVGAPIWFHVP [R22H], 2.47. Take LKGAFPARLKKVLIVGAPIWFPVP [R22P]: the protein stability index worked out at 3.02. On to LKGAFPARLKKVLIVGAPIWFGVP [R22G], for which the protein stability index is 2.34.

Variants of B2 are the subject of another series. Described as above. Particulars: c terminus: a fixed tail appended.
With YTGPSSSGRFAGREWYYGNVYRHQ [T21Y], the protein stability index worked out at 1.91. For the variant YTGPSSSGRFAGREWYYGNVHRHQ [T21H], the protein stability index was found to be 1.9. Still for that read-out and setting: to YTGPSSSGRFAGREWYYGNVIRHQ [T21I] belongs 1.87; to YTGPSSSGRFAGREWYYGNVPRHQ [T21P], 2.06. As for YTGPSSSGRFAGREWYYGNVERHQ [T21E], the protein stability index worked out at 2.05. As for YTGPSSSGRFAGREWYYGNVKRHQ [T21K], the protein stability index was 1.74.

In the case of YTGPSSSGRFAGREWYYGNVNRHQ [T21N], the protein stability index was found to be 2.4. Consider YTGPSSSGRFAGREWYYGNVRRHQ [T21R], for which the protein stability index turned out to be 1.68. YTGPSSSGRFAGREWYYGNVQRHQ [T21Q]: the protein stability index turned out to be 1.78. On to YTGPSSSGRFAGREWYYGNVFRHQ [T21F], for which the protein stability index was 2.53. For YTGPSSSGRFAGREWYYGNVCRHQ [T21C], the protein stability index turned out to be 2.37. On to YTGPSSSGRFAGREWYYGNVMRHQ [T21M], for which the protein stability index was determined as 2.29. For the variant YTGPSSSGRFAGREWYYGNVGRHQ [T21G], the protein stability index was 1.45. As to YTGPSSSGRFAGREWYYGNVVRHQ [T21V], the protein stability index worked out at 2.64. As for YTGPSSSGRFAGREWYYGNVLRHQ [T21L], the protein stability index came out at 2.34. As for YTGPSSSGRFAGREWYYGNVSRHQ [T21S], the protein stability index was 2.13. For YTGPSSSGRFAGREWYYGNVDRHQ [T21D], the protein stability index came to 1.76. YTGPSSSGRFAGREWYYGNVTRDQ [H23D]: the protein stability index turned out to be 2.52. As for YTGPSSSGRFAGREWYYGNVTRRQ [H23R], the protein stability index is 1.53. Take YTGPSSSGRFAGREWYYGNVTRNQ [H23N]: the protein stability index came out at 2.09.

On to YTGPSSSGRFAGREWYYGNVTRMQ [H23M], for which the protein stability index turned out to be 1.56. Still for that read-out and setting: to YTGPSSSGRFAGREWYYGNVTRWQ [H23W] belongs 2.71. Same read-out and setting: to YTGPSSSGRFAGREWYYGNVTRIQ [H23I] belongs 2; to YTGPSSSGRFAGREWYYGNVTRCQ [H23C], 1.07. With YTGPSSSGRFAGREWYYGNVTRVQ [H23V], the protein stability index was found to be 1.56. On the same count and under the same terms, to YTGPSSSGRFAGREWYYGNVTRAQ [H23A] belongs 2.86. YTGPSSSGRFAGREWYYGNVTRPQ [H23P]: the protein stability index stood at 1.23. YTGPSSSGRFAGREWYYGNVTREQ [H23E]: the protein stability index came out at 1.47. The same measure, in the same setting: with YTGPSSSGRFAGREWYYGNVTRTQ [H23T] the figure was 1.46; with YTGPSSSGRFAGREWYYGNVTRFQ [H23F], 1.79; with YTGPSSSGRFAGREWYYGNVTRGQ [H23G], 1.88.

YTGPSSSGRFAGREWYYGNVTRLQ [H23L]: the protein stability index is 2.81. The same measure, in the same setting: with YTGPSSSGRFAGREWYYGNVTRQQ [H23Q] the figure was 1.31; with YTGPSSSGRFAGREWYYGNVTRKQ [H23K], 2.33.

Consider YTGPSSSGRFAGREWYYGNVTRSQ [H23S], for which the protein stability index came to 1.79.

On to YTGPSSSGRFAGREWYYGNVTRYQ [H23Y], for which the protein stability index turned out to be 1.42. Still for that read-out and setting: with YTGPSSSGRFAGREWYYGNVTRHR [Q24R] the figure was 1.55; with YTGPSSSGRFAGREWYYGNVTRHE [Q24E], 1.41. On to YTGPSSSGRFAGREWYYGNVTRHY [Q24Y], for which the protein stability index was 1.72.

Turning to YTGPSSSGRFAGREWYYGNVTRHC [Q24C], the protein stability index was determined as 2.61. With YTGPSSSGRFAGREWYYGNVTRHG [Q24G], the protein stability index was determined as 1.56. For YTGPSSSGRFAGREWYYGNVTRHF [Q24F], the protein stability index is 1.59. Turning to YTGPSSSGRFAGREWYYGNVTRHP [Q24P], the protein stability index came out at 2.07. With YTGPSSSGRFAGREWYYGNVTRHM [Q24M], the protein stability index was 2.44. For YTGPSSSGRFAGREWYYGNVTRHN [Q24N], the protein stability index amounted to 1.62. As for YTGPSSSGRFAGREWYYGNVTRHK [Q24K], the protein stability index amounted to 2.42. The same measure, in the same setting: to YTGPSSSGRFAGREWYYGNVTRHI [Q24I] belongs 2.01. In the case of YTGPSSSGRFAGREWYYGNVTRHW [Q24W], the protein stability index was 2.83. In the case of YTGPSSSGRFAGREWYYGNVTRHD [Q24D], the protein stability index was 2.51.

For the variant YTGPSSSGRFAGREWYYGNVTRHV [Q24V], the protein stability index was 2.17. Same read-out and setting: to YTGPSSSGRFAGREWYYGNVTRHL [Q24L] belongs 2.07; to YTGPSSSGRFAGREWYYGNVTRHA [Q24A], 1.96.

YTGPSSSGRFAGREWYYGNVTRHT [Q24T]: the protein stability index was 1.18. Same read-out and setting: with YTGPSSSGRFAGREWYYGNVTRHH [Q24H] the figure was 1.85; with YTGPSSSGRFAGREWYYGNVTRHS [Q24S], 2.25. Take YTGPSSSGRFAGREWYYGNVTHHQ [R22H]: the protein stability index was determined as 1.33.

Take YTGPSSSGRFAGREWYYGNVTAHQ [R22A]: the protein stability index was found to be 2. With YTGPSSSGRFAGREWYYGNVTFHQ [R22F], the protein stability index turned out to be 2.65.

Turning to YTGPSSSGRFAGREWYYGNVTVHQ [R22V], the protein stability index was 2.18. Regarding YTGPSSSGRFAGREWYYGNVTLHQ [R22L], the protein stability index turned out to be 1.56. Regarding YTGPSSSGRFAGREWYYGNVTWHQ [R22W], the protein stability index worked out at 1.61. The same measure, in the same setting: to YTGPSSSGRFAGREWYYGNVTMHQ [R22M] belongs 1.79. On to YTGPSSSGRFAGREWYYGNVTDHQ [R22D], for which the protein stability index stood at 1.65. As for YTGPSSSGRFAGREWYYGNVTNHQ [R22N], the protein stability index amounted to 2.35. On the same count and under the same terms, to YTGPSSSGRFAGREWYYGNVTPHQ [R22P] belongs 1.14; to YTGPSSSGRFAGREWYYGNVTKHQ [R22K], 1.46; to YTGPSSSGRFAGREWYYGNVTEHQ [R22E], 1.85. On the same count and under the same terms, to YTGPSSSGRFAGREWYYGNVTCHQ [R22C] belongs 1.7; to YTGPSSSGRFAGREWYYGNVTYHQ [R22Y], 2.17. Take YTGPSSSGRFAGREWYYGNVTQHQ [R22Q]: the protein stability index was 2.17. Same read-out and setting: to YTGPSSSGRFAGREWYYGNVTGHQ [R22G] belongs 2.62.
